Data taken from patent publication EP3837551B1 (Medizinische Hochschule Hannover, dated 2024).

T1: Recombinant FHR2, expressed in Pichia pastoris (human, UniProt P36980 19-270)
T1 construct: also called CFHR2
T1 sequence (looked up): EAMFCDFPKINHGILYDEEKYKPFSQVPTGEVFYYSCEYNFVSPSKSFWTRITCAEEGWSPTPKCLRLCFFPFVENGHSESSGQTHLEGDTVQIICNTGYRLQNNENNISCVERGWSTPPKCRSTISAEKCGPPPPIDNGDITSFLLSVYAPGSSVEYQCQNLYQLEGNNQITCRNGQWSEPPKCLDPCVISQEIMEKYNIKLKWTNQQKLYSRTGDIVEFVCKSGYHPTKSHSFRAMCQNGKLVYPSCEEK

T2: Serum-derived FHR1 (FHR1 from normal human serum, NHS) (human, UniProt Q03591 19-330)
T2 construct: mature; The background text says serum FHR1 circulates as homodimers and as heterodimers with FHR2; also called FHR1 from NHS
T2 sequence (looked up): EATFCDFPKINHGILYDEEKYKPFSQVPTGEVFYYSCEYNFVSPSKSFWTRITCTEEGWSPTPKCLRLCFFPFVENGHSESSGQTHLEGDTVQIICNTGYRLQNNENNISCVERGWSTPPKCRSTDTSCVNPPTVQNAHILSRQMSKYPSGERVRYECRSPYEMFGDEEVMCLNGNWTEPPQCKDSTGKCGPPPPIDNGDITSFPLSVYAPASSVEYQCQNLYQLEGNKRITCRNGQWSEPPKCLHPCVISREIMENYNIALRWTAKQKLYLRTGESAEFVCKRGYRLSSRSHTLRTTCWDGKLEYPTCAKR

B1: Recombinant FHR1 SCR1-2 (N-terminal fragment of FHR1) (other, human, UniProt Q03591 19-142, looked up)
chain: EATFCDFPKINHGILYDEEKYKPFSQVPTGEVFYYSCEYNFVSPSKSFWTRITCTEEGWSPTPKCLRLCFFPFVENGHSESSGQTHLEGDTVQIICNTGYRLQNNENNISCVERGWSTPPKCRS
notes: domain: SCR1-2; Expressed in P. pastoris; also called SCR1-2 of FHR1
B2: Recombinant factor H related protein 1 (FHR1), expressed in Pichia pastoris (other, human, UniProt Q03591 19-330, looked up)
chain: T2 sequence (looked up)
notes: also called CFHR1; Complement Factor H-Related Protein 1

Columns and labels:
[1] = target: T1, Recombinant FHR2, expressed in Pichia …; assay: competition ELISA, FHR2 at 0-15 ug/mL against serum FHR1 on immobilized FHR1 SCR1-2
[2] = target: T2, Serum-derived FHR1 (FHR1 from normal …); assay: ELISA, FHR1 SCR1-2 immobilized, 5% NHS, detection with mAb C18
BSA = target: T3, BSA (UniProt P02769 25-607); assay: ELISA, BSA coated at 5 ug/mL, FHR1 detected with polyclonal FHR1 antibody
T3 construct: Control protein coated on the plate
T3 sequence (P02769 25-607 limits assumed): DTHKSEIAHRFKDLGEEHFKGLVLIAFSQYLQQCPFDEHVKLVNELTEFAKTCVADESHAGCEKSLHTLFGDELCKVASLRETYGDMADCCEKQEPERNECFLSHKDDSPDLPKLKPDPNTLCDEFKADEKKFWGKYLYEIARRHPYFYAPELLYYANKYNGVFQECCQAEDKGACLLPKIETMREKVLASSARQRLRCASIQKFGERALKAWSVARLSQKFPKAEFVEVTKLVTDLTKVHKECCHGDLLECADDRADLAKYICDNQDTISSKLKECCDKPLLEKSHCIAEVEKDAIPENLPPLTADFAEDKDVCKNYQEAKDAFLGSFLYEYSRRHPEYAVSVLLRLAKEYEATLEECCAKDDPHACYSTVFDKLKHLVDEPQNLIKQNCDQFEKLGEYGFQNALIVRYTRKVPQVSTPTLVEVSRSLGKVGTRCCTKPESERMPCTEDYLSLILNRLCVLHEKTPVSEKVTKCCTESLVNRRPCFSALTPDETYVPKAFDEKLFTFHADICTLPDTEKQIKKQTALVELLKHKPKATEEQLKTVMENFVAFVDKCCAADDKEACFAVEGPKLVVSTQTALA

| Binder | binding result [1] | binding result [2] | binding result (BSA) |
| --- | --- | --- | --- |
| B1 | binds | binds |  |
| B2 |  |  | no binding (tested: 30 ug/mL FHR1) |
